In patent US9315838B2, “Method to increase algal biomass and enhance its quality for the production of fuel” (priority 2012, dated 2016):
“Also recorded” adds a separate entry of the source.

B1: PGD1: recombinant Chlamydomonas galactoglycerolipid lipase (SEQ ID NO:1), His-tagged, purified from E. coli inclusion bodies and refolded (protein, listed as Chlamydomonas reinhardtii)
chain: MSQLLSHFVRVPTFASPDQVLREARDKERELQNARAPTDVSGFLAPVGVWELKHLRKLSSLTSLTYYMHLVTPRRLQLMHGLDLVVTSRACDVRPYEHNRTAEECGADGDGMAVSFAEARQVYAELKRGTGGASGSGSNGAAAAPVAVAAGVSNIVALPRELPFVPLPGGATEGGEAGAEAAAGAAAAAAAAAGEGTGPGAQGQGAGGLQLPLASTEAIGRMLRSPAEVVSAKLAEAALAASAAAAASPLGAAAESFYAGLASLPIPLAGGLVGANNKAANTLLAPPNGAAASSSGGGGGSGGAAAASEVVGSSRGAQGADPADPGAPNTSGKATAASIAAMATAELRSRRLGGTGPAKTGGSGAASSGSSSGGIGAGGMAPVTAGGMRLSPAATAFSAPPAATVSSLASTDAGTALVPVASSSAASLTFSSSSAYSCPSEWFVVDDPASATRIFVIQGSDTLDHWKLNLTFDPVVFEEPALGVKVHRGVYEAALVLYERFLPLVYEHLEASPFSKVTFTGHSIGGSMATLLMLMYRNRGVLPPHSIATVYTFGAPAVFCQQQQPAVADASSACCNGSSSNGSSTPASGSSSPRSGSPGSASASSLPAGSGSGAGGMSLWALGLSGFGMGGASLAGGGSTSAPSSTAGLASVDGGAVAAGGGGSGFNSSGLGFMSVEDPQAVSMPPGAAQAPSPASAPAPTAGPGHNSHSSHSKAGPAAAKSCACGVDGLLTRLGLAPHVVRNVVMARDVVPRAFACDYSLVADILKGWGPAFREHCCLNRHGRKHLYYFVGRMCILQPDAWHSFVGGDPEHPMLPPGPELYALAEPEDAAAARAHYPALSDLPILNAVTSNGHTRGSGGNGANAAVNAAVNASGPSAAASGGGGGSQQPTAAAAVPSTANFGTALVASAAQRERDARGGGSRLQPRSVVEAVWEIMDNPHPLETLADPGAYLASGSISRYHNPEHYTKALGRLTHLKRLAERRQHPHGQAQQKQAQPQAGEGGIRSMFAGRNIRSFGGGVRSGSGSGSAGRRGLLHQQAASNGTAADAVLASGAAGAAAAAWGSAPQLADLVSGNGGRASAGYEGGVWDSSDGLDLHLSDFMGASAVGAADPHACR
modifications: His tag

Tests used:
[1] = system: Chlamydomonas reinhardtii pgd1 mutant; test: Chlorosis, chlorophyll content and cell viability of N-deprived cultures with DCMU; conditions: DCMU 2 μM added to N-deprived (TAP-N) cultures
[2] = system: Chlamydomonas reinhardtii pgd1 mutant; test: Thiobarbituric acid reactive substances (TBARS) analysis following N deprivation; conditions: DCMU 2 μM, FIG. 8D
[3] = system: Chlamydomonas reinhardtii; test: TAG accumulation (ratio of fatty acids in TAG over total fatty acids) after N deprivation with DCMU; format: cell-based; conditions: 2 d of N deprivation, FIG. 8E
Method: FIG. 8. […] Two representative cultures per line are shown.
Strains and growth conditions.
(§1) Lipid extraction, thin-layer chromatography (TLC) of neutral lipids, transesterification and gas-liquid chromatography were done according to (Moellering and Benning 2010). Briefly, lipids were extracted from cell pellets with methanol, chloroform, 88% formic acid (2:1:0.1 by volume). To the extract 0.5 volume of 1M KCl, 0.2 M H3PO4 was added, mixed and phases were separated by low speed centrifugation. For TAG quantification, lipids were resolved by TLC on Silica G60 plates (EMD chemicals, #5721-7, http://www.emdchemicals.com) developed in petroleum ether-diethyl ether-acetic acid (80:20:1 by volume). Polar lipids were separated on the same plate using chloroform-methanol-acetic acid-H2O (75:13:9:3 by volume) as solvent. To analyze lyso-glycolipids during for the PGD1 assay, acetone-toluene-H2O (91:30:7.5 by volume) was used, instead. Brief exposure to iodine vapor was employed for visualization of lipids. Transesterification of each lipid and separation of fatty acid methyl esters by GLC were as previously described (Rossak et al. 1997). Transesterification was conducted on pellets with a known number of cells to determine the cellular total fatty acid content. Staining with α-naphtol (Benning et al. 1995) was used for the PGD1 assay to detect galactoglycerolipids.

[4] = PGD1 lipase assay on MGDG; format: biochemical
Method: as §1
BL21 (codon+) E. coli strains harboring the empty pMK1006 vector or the pMK1006-PGD1 construct were grown to log phase at 37° C. Isopropyl-β-D-thiogalactopyranoside was added to the final concentration of 0.5 mM to induce protein production. Cells were harvested after 3 hours of induction. To extract proteins, cells were resuspended in lysis buffer (20 mM Tris-HCl, pH 7.9, 10% glycerol, 150 mM NaCl, 1 mM dithiothreitol). The mixture was then frozen in liquid nitrogen and thawed at room temperature for three cycles and sonicated to lyse cells. Lysates were centrifuged at 21,000×g for 15 minutes to obtain inclusion bodies. Inclusion bodies were washed with 5 mL/g wash buffer (4 M urea, 0.5 M NaCl, 1 mM EDTA, 1 mg/ml sodium deoxycholate, 50 mM Tris-Cl pH 8.0) twice and denatured with solubilization buffer (8 M urea, 50 mM Tris-Cl pH 8.0, 10 mM dithiothreitol) by incubation at 50° C. for 20 min. Supernatant was collected after centrifugation at 21,000×g for 30 minutes and subjected to Ni-NTA affinity purification as described before (Lu and Benning 2009). His-tagged PGD1 protein was eluted with solubilization buffer containing 200 mM imidazole. […] After 1 hour incubation at 4° C., proteins were aliquoted and kept frozen at −80° C. Protein concentration was determined with Bio-Rad Protein Assay Dye Reagent Concentrate (http://www.bio-rad.com) according to the manufacturer's instructions.
To prepare lipid substrates from Chlamydomonas or E. coli cells, lipids were extracted from 48 hours N-deprived Chlamydomonas cells or IPTG induced E. coli cells expressing cucumber MGDG synthase (Shimojima et al. 1997) and resolved by polar TLC. Corresponding bands were isolated and lipids were recovered from silica gel by extraction with chloroform-methanol (1:1 by volume). For each PGD1 reaction, 75 nmol lipid substrates extracted from Chlamydomonas, or E. coli cells expressing the cucumber MGDG synthase were used. […] Per assay 10 μg refolded PGD1 protein (quantified as stated above) in 50 μL protein refolding buffer was added. […]

[5] = PGD1 lipase assay on other major membrane lipids; format: biochemical, Chlamydomonas
Method: (§2) Lipid extraction, thin-layer chromatography (TLC) of neutral lipids, transesterification and gas-liquid chromatography were done according to (Moellering and Benning 2010). Briefly, lipids were extracted from cell pellets with methanol, chloroform, 88% formic acid (2:1:0.1 by volume). To the extract 0.5 volume of 1M KCl, 0.2 M H3PO4 was added, mixed and phases were separated by low speed centrifugation. For TAG quantification, lipids were resolved by TLC on Silica G60 plates (EMD chemicals, #5721-7, http://www.emdchemicals.com) developed in petroleum ether-diethyl ether-acetic acid (80:20:1 by volume). Polar lipids were separated on the same plate using chloroform-methanol-acetic acid-H2O (75:13:9:3 by volume) as solvent. […]
(§3) BL21 (codon+) E. coli strains harboring the empty pMK1006 vector or the pMK1006-PGD1 construct were grown to log phase at 37° C. […] Protein concentration was determined with Bio-Rad Protein Assay Dye Reagent Concentrate (http://www.bio-rad.com) according to the manufacturer's instructions.
(§4) To prepare lipid substrates from Chlamydomonas or E. coli cells, lipids were extracted from 48 hours N-deprived Chlamydomonas cells or IPTG induced E. coli cells expressing cucumber MGDG synthase (Shimojima et al. 1997) and resolved by polar TLC. […] Per assay 10 μg refolded PGD1 protein (quantified as stated above) in 50 μL protein refolding buffer was added. […]

[6] = PGD1 lipase assay on DGDG; format: biochemical, Chlamydomonas
Method: as §2, §3, §4

Row | Molecule | chlorosis ([1]; FIG. 8A, B) | viability loss ([1]; FIG. 8C) | burst of TBARS in the pgd1 mutant [2] | pgd1 TAG phenotype ([3]; pgd1 mutant, DCMU 2 μM) | TAG levels of the wild-type parental strain ([3]; wild-type parental strain dw15-1, DCMU 2 μM) | apparent MGDG concentration up to which hydrolysis was linear in reaction velocity ([4]; E. coli-derived MGDG, 3 hours incubation, FIG. 15B) [µM] | time at which lyso-MGDG was detectable ([4]; E. coli-derived MGDG, FIG. 15A) [min] | positional preference of acyl group hydrolysis ([4]; E. coli-derived MGDG, compared with Rhizopus lipase digestion, FIG. 7H, 7I) | activity on E. coli-derived MGDG versus mature MGDG from Chlamydomonas ([4]; intensity of the lyso-MGDG band, FIG. 7B) | lyso-MGDG product generated ([4]; mature MGDG isolated from Chlamydomonas (predominantly 18:3/16:4), TLC, FIG. 7B) | generation of lyso-DGTS and lyso-PtdEtn ([5]; iodine staining, compared with Rhizopus lipase, FIGS. 16A and 16B) | Lyso-SQDG hydrolysis ([5]; sugar-specific staining, FIG. 16D) | formation of lyso-DGDG ([6]; DGDG extracted from Chlamydomonas, sugar-specific staining, FIG. 7C) | product formed in competition experiment ([6]; E. coli-derived MGDG and Chlamydomonas-derived DGDG offered in equal amounts)
1 | CN(C)C(=O)Nc1ccc(Cl)c(Cl)c1 [DCMU, 3-(3,4-dichlorophenyl)-1,1-dimethylurea] | suppressed | suppressed | reverted | did not rescue | decrease; also recorded: lower levels of TAG |  |  |  |  |  |  |  |  | 
2 | B1 |  |  |  |  |  | ≤ 300 | 30 | prefers acyl groups at the sn-1 position | more active | rather faint | detectable by iodine staining, but at much lower levels | not detectable | no formation of lyso-DGDG was detected | only lyso-MGDG was formed
